# Data taken from the nanobody polyreactivity screen of Harvey et al. (2022).
# Assay: yeast display, Sf9 membrane polyspecificity reagent, FACS + sequencing; frameworks hold sequencing errors
# In short: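 A nanobody's polyreactivity label depends on the gate it was sorted from. Yeast display cells were stained with 10% biotinylated, detergent-solubilized Sf9 membrane reagent for 1 hour at 4 °C, enriched on streptavidin microbeads and sorted by FACS. The low and high (top ~1%) gates were set on anti-HA fluorescence for expression and streptavidin fluorescence for reagent binding.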
row,Sequence,polyreactivity (PSR sort gate)
1,QVQLVESGGGLVQAGGSLRLRCAASGFTFGRYAMGGYRQAPGKERELVAGITSGGSTYYADSVKGRFTISLDNAKNTVYLQMNSLKPEDTAVYYCITKVISRTSERRGNGFTRYDYWGQGTQVTVSS,low polyreactivity
2,QVQLEESGGGLVQAGGSLRLSCAASGSIFPHYAMRWNRQAPGKERELVAAISRSGTSTYYADSVKGRFPISRDNAKNTVYLQMNSLKPEHTAVYYCNAYQVYTRTYGYWGQGTQVTVSS,high polyreactivity
3,QVQLVESGGGLVQAGGSLRLSCAASGRIGYYAMGWNRQAPGKERELVAAISYGGGSTYYADSVKGRFTISRDNAKNTVYLLMNSLKPEDTAVYYCAARWGKSWRGYGYWGQGTQVSVSS,high polyreactivity
4,QVQLVDSGGGLVQAGGSLRLSCAAYGSIFKYYCMGWYRQAPGKERELVATISKRGGSTYYADSVKGRFTISRDNAKNSVYLQMNSLKPEDTAVYYCAKDSPALRPLTWQQLYDFWGQGTQVTVSS,high polyreactivity
5,QVQLVESGGGLVQAGGSLRLSCAASGSIFYGYAMGWYRQAPGKEREFVASINSGVGSTYYADSVKGRFTISRDNAKNTVYLLMNSLKPEDTAVYYCNKVHRSFTYNDGQTPAYDYWGQRTQVTVSS,low polyreactivity
6,QVQLVESGRGLVQAGGSLRLSCAASGRTFRGNAMGWYREAPGKERELVAAIRYRGGSTYYADSVKGRFTISRDNAKNTVYLQMNSLKPEDTAVYYCARRYTVHTQHYDYWGQGTQVNVSS,high polyreactivity
7,QVQLVESGGGLVQAGGSLRLSCAASGFIFAYYAMGWYRQAPGKERELVAAITIDGSTNYADSVKGRFTISRDNAKNTVYLQMNSLKPEDTAVYYCAAADHPPVWYGYWGQGTQVTVSS,low polyreactivity
8,QVQLVESGGGLVQAGGSLRLSCAASGFTFYKNAMGWYRQAPGKERELVAAITSSGGSTYYADSVKGRFTISRDNAKNTVYLQMNSLKPEDTAVYYCAARASRPRFGYWGQGTQVTVSS,high polyreactivity
9,QVQLVESGGGIVQAGGSLRLSCAASGRIFGRYAMGWYIQAPGKERELVAAISRSGGSTYYADSVKGRFTISRDNAKYTVYLQMNSLKPEDTAVYYCNAKYVRAGDTYDYWGQGTQVTVSS,high polyreactivity
10,QVQLVESGGGLVQAGGSLRLSCAASGRIFPTYTMGWYRQAPGKERELVAAIRRGGGRTYYADSVKGRFTISRDNAKNTVYLQMNSLKPEDTAVYYCAAPFYRQSLIEYDYWGQGTQVTVSS,high polyreactivity
11,QVQLVESGGGLVQAGGSLRLSCAASGLTIAAYAMGWYRQAPGKERELVAAITQRGGSTYYADSVKGRFTISRDNAKNTVYLQMNSLKPEDTAVYYCAADSTWWWWKLYSPYGYDYWGQGTQVTVSS,low polyreactivity
12,QVQLVESAAGLVQAGGSLRVSCAASGSSFRLYAMGWYRPAPGKEREFVARIRWRGGSTNYADSVKGRFTISRDNAKNNVYLQMNSLKTEDTAVYYCAAKQGTVRAHTYVPWYDYWGQGTQVTVSS,high polyreactivity
13,QVQLVESGGGLVQAGGSLRLSCAASGITFFPYAMGWYRQAPGKERELVASISDGGGTNYADSVKGRFTISRDNAKNTVYFQMNSLKPEDTAVYYCATDASTYAYYGGDYWGQGTQVTVSS,low polyreactivity
14,QVHLVESGGGLVQAGGSLRLSCAASGSIFNENAMGWYRQAPGKERELVATISRRGGSTYYADSVKGRFTISRDNAKNTVYLQMNSLKPEDTAVYYCARDIFWVVYWGQGTQVTVSS,high polyreactivity
15,QVQLVESGVGLVQAGGSLRVSCAASGSICNYYAMVWYRQAPGKERELVATISSGGNTKYADSVKRRFTISRDNAKNTVSLQMNSQKPEDTAVYYCAARWQHSGYRDRYWYDYWGQGTQVTVSS,low polyreactivity
16,QVQLVESGGGLVQAGGSLRLSCAASGRIFGGYEMGWYRQAPGKERELVAAITSDSSTTYADSVKGRFTISRDNAKNTVYLQMNSLKPEDTAVYYCAVQVNGPVFYRPYRDYDYWGQGTQVTVSS,low polyreactivity
17,QVQLVESGGGLVQAGGSLRLSCAASGSTIQLYAMGWYRQAPGKERELVAAITSSAGRTYYADSVKGRFTISRDNAKNTVYLQMNSLKPEDTAVYYCAKDGSFTFWGQGTQVTVSS,low polyreactivity
